Measurements reported in the supplement of paper PMC9170038.

Test system: MS2 coat protein
Test: apparent KD of MS2 coat protein, switch ON state; designed switch direction (-1 OFF switch, 1 ON switch): -1; higher = weaker reporter binding
Conditions: FMN input: 0 or 200 uM; Eterna round: R93 (includes R88 designs)
Procedure, shortened: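 Apparent KD per design is the median of normalised cluster binding-curve fits. Designed RNA switches transcribed on-chip from Illumina sequencing clusters were titrated with SNAP-549-labelled MS2 coat protein in twofold steps from 0.7 or 1.5 nM to 3 µM, with 0.8–1.5 h down to 10–20 min per step. Buffer: 100 mM Tris-HCl pH 7.5, 80 mM KCl, 4 mM MgCl2, without or with constant ligand.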

Sequence | apparent KD of MS2 coat protein
GGAAAACAUGAGGAUCACCCAUGUAAGGAUAUGCUAGGGAGGGAAAAAAUUUCGCCAGGCAGAAGGUACUAAAG [Janelle Amethyst 18 Mod 6 - Jieux - Exclusion 1] | 23.5 nM
GAUAGGCGAGGAUAUACAUGAGGAUCACCCAUGUAAGUAAGCCUGGCUGAAACUGAAUGUAGAAGGCGCAAAUU [Mat - Exclusion 3 - Neo mod - D70] | 17.8 nM
AAGAAGUGAGGAUAUGUCUGUGCGAAAAAAAAAAAGUGCAGACAGAAGGCACAUGAGGAUCACCCAUGUGGGAA [Florian 65% 6] | 76.6 nM
AAAAAGUGAGGAUAUUCGGAAGGGAAAGCGCAAACCCAACCGAAGAAGGCACAUGAGGAUCACCCAUGUGAAAA [Ecls4-III 65% - Early + late G segment 1] | 21.2 nM
AAGAAGGCAGGAUAUACAAAAUAAAAGAAAAGAAAGAAAGAACAUGAGGAUCACCCAUGUAGAAGGGCUAAGAA [Merhotepre Ini] | 50.9 nM
AGUGAGUGAGGAUAUGACUGAAGAAUAAAAGAAAUAACAAGUCAGAAGGCACAUGAGGAUCACCCAUGUACACA [May 60] | 28.8 nM
CAGAGACAUGAGGAUCACCCAUGUUAGGAUAUGCGUGAAAGAAAAAAAAAGUUAAAAAGCAGAAGGAACAGAGG [JR_Exc001_Sub310] | 152 nM
UUAGAACAUGAGGAUCACCCAUGUGAGGAUAUGCAAUACUAGCGACAAGAUCGUUAUAGCAGAAGGCACGUAGU [JR_EXc001_Sub807] | 38.6 nM
AGGGAACAUGAGGAUCACCCAUGUGAGGAUAUACAAAAGAAAAGAAAAGAAAGAAGAAGUAGAAGGUACAAGAA [Neferka] | 23.9 nM
GAAAAGUCAGGAUAUGCGAAGGCGUCUGAUAGACGAGGCUAGCAGAAGGGACAUGAGGAUCACCCAUGUGAAAG [Mat - Exclusion 4 - Eli mod - D87] | 54.6 nM
AAACGUAGAGGAUAUACAUAAGUAUUACGAAAGUAAUACAAACAUGAGGAUCACCCAUGUAGAAGGCUACGAAA [MOD2 of Meechl's MS2 Ex2 (MS2 riboswitches - Exlclusion 2)] | 24.9 nM
AGAAAACAUGAGGAUCACCCAUGUCAGGAUAUCCAAAUAAAAAUAAAAUAAAAUAAAAGGAGAAGGGACAAAAG [May 1] | 49.2 nM
CUCAUGUCAGGAUAUCAGUAGUAAAAAAAUAAAAUUACUACUGAGAAGGGACAUGAGGAUCACCCAUGUAAAAA [EX4 363: Super Stable 63] | 16.1 nM
AAAAACCGAGGAUAUACAUGAGGAUCACCCAUGUAAAAAAAAAAAAAGGGAAAAAAAAGUAGAAGGCGGAAAAA [Djehuti Sekhemresementawy] | 26.2 nM
AACUGACAUGAGGAUCACCCAUGUCAGGAUAUGACUUCGAAAAAAAAAAAAAACGAUGUCAGAAGGGACAUGGA [Design 66: Sub-opt N] | 17.5 nM
AAAAAUGGAGGAUAUACAUGAGGAUCACCCAUGUGUGGGCAUACUGUGUCGGCGUCAGGUAGAAGGCCAAAAAA [Gilly Gone Silly 27 - Jieux - Exclusion 3] | 36.5 nM
AGGGAACAUGAGGAUCACCCAUGUGAGGAUAUUCAAAAGAAAAGAAAAGAAAGAAGAAGAAGAAGGUACAAGAA [Neferkare Pepi II] | 42.9 nM
AAAAAUUGAGGAUAUACAUGAGGAUCACCCAUGUUAGAACAAAAAAAAGGGAAAGAAAGUAGAAGGCAAUAAAA [Ex 3 May 26] | 20 nM
AACAGUACAGGAUAUACAUGAGGAUCACCCAUGUGAAAAUUAAGUGGCGAACCACAGUGUAGAAGGGUACUGGA [Mat - Exclusion 3 - Eli mod - D51] | 81.8 nM
CAGUACUGAGGAUAUACAUGAGGAUCACCCAUGUGAAAAAGCUACGAAAGUAGCACAUGUAGAAGGCAGUACUG [Ex3: 807] | 319 nM
AAAAAACAUGAGGAUCACCCAUGUAAGGAUAUGUAAAACCCAUAUAAAAAGGGAAAAAACAGAAGGUGCAAAAA [wbt round 1 mod 6] | 35.1 nM
CCCAUGUCAGGAUAUCAGUAGUAAAAAAAAAAAAUUACUACUGAGAAGGGACAUGAGGAUCACCCAUGUCCCUU [EX4 314: Super Stable 14] | 16.9 nM

Sequence | apparent KD of MS2 coat protein
AAUAAGUGAGGAUAUACUAAAGAAAUGAAAAGGGAUAAAGAACAUGAGGAUCACCCAUGUAGAAGGCACAAUAA ['Aper-'Anat] | 31.9 nM
AGGAAACAUGAGGAUCACCCAUGUAAGGAUAUCAGAAAGAAAAGAAAAGAAAGAAGAAUGAGAAGGUACAAGAA [Horus Bird] | 29.1 nM
AGCUAGUCAGGAUAUACGAACAUGUCAAAAGACGAGAAGGGACAUGAGGAUCACCCAUGUAGAAGGGACUAGCA [Diamond 21] | 87.5 nM
AAGAACUCAGGAUAUACAUGAGGAUCACCCAUGUAAAAGAAAGAAAGGGAAAAGAAAAGUAGAAGGGAGAAGAA [Hedjkheperre-setpenre Nesbanebdjed] | 28.7 nM
AAAAAGGCAGGAUAUGCAUACACACAAAAAAAAAAACUGGGACAUGAGGAUCACCCAUGUAGAAGGGCCAAAAA [Dora Explored 8 - Jieux - Exclusion 2] | 151 nM
AACAAACAUGAGGAUCACCCAUGUGAGGAUAUGAAAAUAAAUAAAAAUAAAAUAAAAAUCAGAAGGCACAACAA [JR_Exc001_Sub003] | 25.6 nM
AAUAAGUGAGGAUAUCGAAGACUGUCGAAAAGACAGUCGAACGAGAAGGCACAUGAGGAUCACCCAUGUGAGGG [Mat - Exaclusion 4 - Eli mod - D69] | 130 nM
AAGGUACGAGGAUAUACAUAGAUACAGACACAUGUACAUGUACAUGAGGAUCACCCAUGUAGAAGGCGUAUAUA [AJ 19] | 86.1 nM
AAAGGAGCAGGAUAUACAUGAGGAUCACCCAUGUAAAAAACAUAAUAAAAGAACUUAUGUAGAAGGGCUCCAAA [69%, Moding Meechl, 10] | 48.2 nM
AGUUGGCGAGGAUAUACAUGAGGAUCACCCAUGUAAGAGUAAAGAGUGAGAAAGAGAAGUAGAAGGCGCUGACA [Ruby 57] | 53 nM
AUAGGCCUAGGAUAUACAUGAGGAUCACCCAUGUUAAUAUUUCAAACAUGAUAAACGUGUAGAAGGAGGAAUAA [JR_Exc003_Sub303] | 41.7 nM
GAAAGUGGAGGAUAUACAUGAGGAUCACCCAUGUGUAAAAAUAAAUACACAAAAGAAAGUAGAAGGCCACAAAG [Mat - Exclusion 3 - Mayanna mod - D118] | 30.6 nM
AAUAGUGGAGGAUAUACAUGAGGAUCACCCAUGUAGAAAGGAAGUGUAUAUAUGGCGUGUAGAAGGCCAAAUAA [Mai Tai 3 ala Nando] | 32.3 nM
GGUUGGCGAGGAUAUACAUGAGGAUCACCCAUGUGAGAGAAAAAAGUGAUAAAGAAAAGUAGAAGGCGCUGACG [salish99-ex3-32] | 120 nM
AGAUCAUCAGGAUAUACAUAGGUGAAAAAAGUAAAUCCACUACAUGAGGAUCACCCAUGUAGAAGGGAUGAUCA [Ex2 Design 176: Random 4] | 39.1 nM
AGCUAGUCAGGAUAUACGAACAGGUCAAAAGACGUAAGGGAACAUGAGGAUCACCCAUGUAGAAGGGACUAGCA [Diamond 52] | 32.9 nM
AAUUAGGUAGGAUAUACAUGAGGAUCACCCAUGUAGGAAAAAAGCUACGAAAAAGAAUGUAGAAGGACCUAAAA [Ex 3 Sunny] | 13.2 nM
AAAUGACAUGAGGAUCACCCAUGUCAGGAUAUGACUUGAAAAUAAAAUAAAAAACAUGUCAGAAGGGACAUGAA [Design 49: Sub-opt EB] | 13.5 nM
AAGAACGCAGGAUAUACAAAAUAAAAGAAAAGAAAGAAAGAACAUGAGGAUCACCCAUGUAGAAGGGCGAAGAA [Sewadjkare] | 52.2 nM
AAGAAGUCAGGAUAUACAUGAAAGAAAGAAAAGAAAAGAAAACAUGAGGAUCACCCAUGUAGAAGGGACAAGAA [EteRNA is fun!] | 54.5 nM
AGAAACGUAGGAUAUACAUGAGGAUCACCCAUGUAAAGAAAGAAGGGAGCCACAAGAAGUAGAAGGACGAAGAA [JR_Exc003_Sub004] | 33.4 nM
GGUUGUCGAGGAUAUACAUGAGGAUCACCCAUGUGAGAGAAAAAAGUGAGAAAGAAAAGUAGAAGGUGGUGACG [salish99-ex3-71] | 57.6 nM
